± gives the standard deviation of the averaged measurements.
System: ATP
Test: switch fluorescence ratio, 500 uM ATP over buffer (Cy3 cluster intensity, sum of 5 cycles each) (fold (ratio)); higher = stronger signal-on switching upon ATP binding; sequences stand for … in TCGTCGGCAGCGTCAGATGTGTATAAGAGACAGTTTTTTTTTTTTTTTTTTTTTTTTT…TC
Conditions: aptamer strand: ATP DNA aptamer (quencher-CACCTGGGGGAGTATTGCGGAGGAAGG + anchor), 100 nM annealed; ATP concentration: 500 uM
Method in brief: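 Imaging in selection buffer was followed by imaging after 15 min with 500 uM ATP at 22 °C, for Cy3-labelled switching-strand clusters annealed to 100 nM quencher-labelled ATP aptamer on a modified Illumina MiSeq flow-cell. Five of these buffer/ATP cycles ran, separated by NaOH stripping and re-annealing. The fluorescence ratio per cluster is summed target-cycle over summed buffer-cycle Cy3 intensity, averaged per switch-domain sequence; clusters outside 100-1000 RFU were removed.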
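Note: ATP exposure 15 min at 22 °C before imaging.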

Row | Sequence | switch fluorescence ratio
1 | CATAGATGTC | 0.989 ± 0.063
2 | AGAGTAACGG | 0.995 ± 0.015
3 | CCGCGCACCG | 1.73 ± 0.053
4 | AACGTTATGC | 1.13 ± 0.069
5 | TTTAACGCCA | 1.082 ± 0.0028
6 | ATTTTTGTAG | 1.01 ± 0.017
7 | GCTTTAATTC | 1.029 ± 0.0049
8 | AAGGGAATTA | 0.986 ± 0.015
9 | GGGATTCAG | 1.0226 ± 0.0002
10 | TTGGAAGGGC | 1.012 ± 0.0063
11 | GGGCGCTAGG | 0.971 ± 0.014
12 | AATCTGCCCA | 1.04 ± 0.015
13 | TATAGAGGGA | 0.988 ± 0.02
14 | TGGATTGTTT | 0.994 ± 0.03
15 | CCACTGGGGG | 1.04 ± 0.028
16 | GCGGATGGTG | 1.07 ± 0.08
17 | AATTAGGCGG | 1.02 ± 0.02
18 | TAAGATTGTA | 0.993 ± 0.032
19 | GTTGATAAGG | 1.01 ± 0.045
20 | ATGCACTGGA | 0.9969 ± 0.0075
21 | CGTGAGGATT | 1 ± 0.022
22 | TGCGTGAAAT | 0.9765 ± 0.0044
23 | GAAAGATTAT | 1.03 ± 0.02

Row | Sequence | switch fluorescence ratio
24 | TTTTAGTTTT | 1 ± 0.031
25 | GGGGGTACTT | 1 ± 0.03
26 | CCTGTGTAAT | 3.18 ± 0.053
27 | TAAGGATTGT | 1.032 ± 0.0063
28 | TAGTACGGGC | 1 ± 0.044
29 | CTTCGGGGCG | 1.01 ± 0.07
30 | ACATTGGGCT | 1.01 ± 0.072
31 | AGAGTTTGGT | 0.9847 ± 0.0013
32 | TTAAAATGGT | 1 ± 0.052
33 | TTCGGGAATT | 1.1 ± 0.11
34 | TTACGCCCTT | 1.11 ± 0.08
35 | ATGTAGCATA | 1.57 ± 0.082
36 | ATAGACGTTT | 0.994 ± 0.053
37 | GGGGCTTTTA | 0.97 ± 0.01
38 | TCGGTGAGGT | 0.9988 ± 0.0027
39 | GATTTTCGTA | 0.985 ± 0.025
40 | TTCAGGGGTA | 1.02 ± 0.033
41 | AAAGATTGAC | 1.01 ± 0.08
42 | CGGTGTTTTC | 0.972 ± 0.046
43 | GAGTACAAAA | 1.02 ± 0.015
44 | TTAGCTCATT | 1 ± 0.02
45 | TCTCTACTGG | 1.03 ± 0.058
46 | AATCGAAAGA | 1.02 ± 0.039

Row | Sequence | switch fluorescence ratio
47 | AACAGGGCGG | 1.01 ± 0.015
48 | GGCCCGATTT | 1.01 ± 0.024
49 | AAAGTCGCGC | 1.01 ± 0.018
50 | CATATGTTGA | 0.975 ± 0.026
51 | GGGATGTGGT | 1.01 ± 0.023
52 | AATTCAGTTT | 1.01 ± 0.033
53 | CGTACGTGGC | 1.125 ± 0.0035
54 | CTTTTTGTTG | 1.03 ± 0.031
55 | CTTCCGGAGG | 1.9 ± 0.048
56 | TAGAGGTAAT | 1.01 ± 0.022
57 | ACTGATCAGA | 0.99427 ± 0.00038
58 | TTCCCACTAT | 1.023 ± 0.0078
59 | TCGGAGTCTG | 1.04 ± 0.056
60 | TTTTATAATG | 1.038 ± 0.0011
61 | GTGTGGGGCC | 0.973 ± 0.012
62 | CACAACACTC | 1.37 ± 0.044
63 | GTTCAGTGAG | 0.995 ± 0.01
64 | TAGGAAATTT | 1.03 ± 0.087
65 | TTGGGGAAGA | 1.02 ± 0.029
66 | GTTGGTGTGG | 0.9975 ± 0.0086
67 | ATTATTATGC | 0.97 ± 0.025
68 | GCCGGTACAA | 1.01 ± 0.073
69 | TAGTCATTCA | 0.981 ± 0.026

Row | Sequence | switch fluorescence ratio
70 | CAGGTCCGGG | 1.02 ± 0.018
71 | TTGGAGGAGA | 1.029 ± 0.005
72 | ATTGGTGAGG | 0.988 ± 0.032
73 | ACTGGACGAT | 1.19 ± 0.015
74 | TAGATTTTTA | 0.987 ± 0.028
75 | ATGGGGTTCG | 0.993 ± 0.035
76 | GAGGCTAATT | 1.03 ± 0.057
77 | GCAGCTTCGG | 0.984 ± 0.014
78 | GGACTTCTTG | 0.932 ± 0.045
79 | GGCTCGGGGG | 1.03 ± 0.029
80 | AACGGGAATT | 1.039 ± 0.0056
81 | TCACCTTATT | 1.03 ± 0.022
82 | TTTTTGTATT | 1.03 ± 0.02
83 | GAGTAAAGTC | 0.934 ± 0.029
84 | CGGTTGACGG | 0.9494 ± 0.0017
85 | TGTGATGCTG | 1.02 ± 0.044
86 | CGGTACTGAT | 1.0316 ± 0.00064
87 | CGGCTTTGCC | 0.999 ± 0.016
88 | GAGGGGGGCG | 1.04 ± 0.085
89 | GTAAGGGAAA | 1.02 ± 0.051
90 | TGAGCTAGGG | 1.005 ± 0.0026
91 | ATAATGGAGT | 0.983 ± 0.066
92 | TGTGGATGTC | 0.977 ± 0.038

Row | Sequence | switch fluorescence ratio
93 | TAGGGGGTGG | 1 ± 0.03
94 | GGCCTGAAAC | 0.9929 ± 0.0037
95 | ACTCGAAGGG | 1.02 ± 0.042
96 | GGGGGTATGC | 1.05 ± 0.15
97 | CTGAGTCGGA | 0.983 ± 0.033
98 | TGTCCTCAAT | 1.22 ± 0.02
99 | TTACGTGGGA | 1.02 ± 0.026
100 | TTTCAGGTCC | 1.03 ± 0.065
101 | CTAATGGCTT | 0.977 ± 0.033
102 | CAGCGCATTA | 2.01 ± 0.11
103 | AAGCAGAGGC | 1.004 ± 0.0031
104 | TATGTAATGG | 1.02 ± 0.036
105 | ACTTTAGGGG | 1.06 ± 0.044
106 | AGGGTTATGG | 0.996 ± 0.016
107 | AGGCAGAATC | 1.01 ± 0.037
108 | ACAGCGGCTA | 1.02 ± 0.017
109 | GGGTATTATT | 1.022 ± 0.0047
110 | CGGGTTTGAA | 0.972 ± 0.024
111 | GTTCCTGCGG | 1.075 ± 0.01
112 | ATGGTTTTAA | 1.03 ± 0.02
113 | TTTTTATGAC | 1.01 ± 0.029
114 | GGAGGAGCTG | 0.95 ± 0.042
115 | TTGACAGTAA | 1.08 ± 0.014

Row | Sequence | switch fluorescence ratio
116 | CTGAGTCAAT | 2.23 ± 0.042
117 | TAAAGGGGCA | 1 ± 0.028
118 | GCCAAAGGGA | 1.01 ± 0.063
119 | TATCAGACAG | 1.011 ± 0.0095
120 | CCTATAAAGG | 1.03 ± 0.04
121 | GTGGTTTGGA | 0.989 ± 0.031
122 | TTATCCAGGA | 1.006 ± 0.0093
123 | ACCAAGTTTT | 1.019 ± 0.0072
124 | TTATGAATAT | 0.9824 ± 0.005
125 | CCAATTTATG | 0.9919 ± 0.0078
126 | AATTGGATCT | 1.01 ± 0.027
127 | GGGAGCAGGG | 0.909 ± 0.058
128 | TTTCTTAGGT | 1.03 ± 0.014
129 | AGCGCTTATG | 1 ± 0.022
130 | ATGCCCGGGC | 0.988 ± 0.017
131 | CGACATGGTG | 1.07 ± 0.027
132 | TGACGGCCTG | 1.06 ± 0.022
133 | GAACTCTACT | 1.14 ± 0.044
134 | AGAGTTAATG | 0.968 ± 0.011
135 | GTGGGGGAGA | 0.9868 ± 0.0059
136 | GTAGTTAGGG | 1.02 ± 0.015
137 | TTCCTTTTTT | 1.03 ± 0.065
138 | TCGAGTTGCA | 1 ± 0.033

Row | Sequence | switch fluorescence ratio
139 | CTTATTTTTT | 1.01 ± 0.029
140 | GGGGCAAATT | 1.05 ± 0.12
141 | AAAGTCTTGT | 1.01 ± 0.035
142 | AAATGTGTCT | 1.01 ± 0.04
143 | TGGGTTATGT | 0.992 ± 0.019
144 | ATGCGGGGGG | 1.01 ± 0.021
145 | GGGTCGCCAT | 1 ± 0.028
146 | TTTGTCTAGG | 0.994 ± 0.019
147 | TGTGAAACCT | 1.95 ± 1.2
148 | TGAATAAGAG | 1.01 ± 0.026
149 | ATGGTGGGGG | 0.995 ± 0.034
150 | ATTTTCTTGC | 1 ± 0.038
151 | GGCTAAAAAC | 1 ± 0.039
152 | GTATACATTG | 1.02 ± 0.027
153 | GGGCATCTTT | 1 ± 0.06
154 | CGTTTGGAGC | 0.968 ± 0.031
155 | ATCAAGGACG | 1.02 ± 0.05
156 | CAATTTGTGG | 0.968 ± 0.021
157 | ATAGTGAAGT | 0.982 ± 0.019
